These results are taken from PMC3643934, “Identification and Characterization of the Direct Interaction between Methotrexate (MTX) and High-Mobility Group Box 1 (HMGB1) Protein” (PLoS ONE, 2013).

One may read the Kd as the constant that tells how readily two partners part at equilibrium. The low end stands for a tighter complex, the high end for a looser complex. Broadly, the koff is the first-order rate constant of dissociation. A low value points to slow dissociation. As a reminder, the kon is the second-order rate constant of association.

What all share (details): both partners purified
Assay [1] addresses T1, extracellular domain of RAGE (M1-A344) (UniProt Q15109 23-344).
T1 construct: signal peptide in the construct; receptor for advanced glycation end products (RAGE), extracellular domain, M1-A344 as printed; The results call it 'chimeric RAGE' without saying what it is fused to; the R&D Systems product with these limits is probably the human RAGE Fc chimera (surmise), in which the signal peptide would be removed on secretion; also called chimeric RAGE; receptor for advanced …
The assay can be described thus: SPR; same set-up, no MTX; equilibrium responses (Req), concentration-response curve and Lineweaver-Burk plot. (In SPR one partner is held on a chip, and binding of the other changes the refractive index at the surface.)

Assay [2] addresses T1, extracellular domain of RAGE (M1-A344). The assay can be described thus: SPR; same set-up, Bj 0.31-10 µM injected with 1 mM MTX; equilibrium responses (Req), Lineweaver-Burk plot, noncompetitive inhibition model.
The target is the same in assay [3]. The assay can be described thus: SPR; Biacore 3000; RAGE immobilised on a CM5 chip by amine coupling up to 5000 RU; Bj 0.31-10 µM injected at 30 µl/min, 120 s association and 120 s dissociation; PBS, 25°C; no MTX; kinetic analysis by global fitting.

T1 sequence (Q15109 23-344): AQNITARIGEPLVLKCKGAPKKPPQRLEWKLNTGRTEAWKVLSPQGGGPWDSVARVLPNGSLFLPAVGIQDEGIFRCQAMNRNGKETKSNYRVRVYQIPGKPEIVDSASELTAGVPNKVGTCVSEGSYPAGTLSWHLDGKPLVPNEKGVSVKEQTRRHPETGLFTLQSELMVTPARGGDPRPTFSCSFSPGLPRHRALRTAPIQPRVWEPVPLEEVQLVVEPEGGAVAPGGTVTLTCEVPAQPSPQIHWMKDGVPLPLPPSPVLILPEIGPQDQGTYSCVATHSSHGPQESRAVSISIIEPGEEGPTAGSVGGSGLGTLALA

B1: Bj protein (amino acid residues F88-K181 of HMGB1) (domain or fragment)
chain: FKDPNAPKRPPSAFFLFCSEYRPKIKGEHPGLSIGDVAKKLGEMWNNTAADDKQPYEKKAAKLKEKYEKDIAAYRAKGKPDAAKKGVVKAEKSK
modifications: Paper numbering starts at G1 (initiator Met removed), so entry number = paper number + 1 (F88-K181 -> 89-182; D157 -> D158; Y161 -> Y162). N-terminal 6xHis tag from pTrcHis omitted; expressed in E. …
Turning to B1, the Kd in assay [1] amounted to 1350 nM; in assay [2], 1390 nM; in assay [3], 3710 ± 1680 nM. Also, the dissociation rate constant (koff) in assay [3] was found to be 0.00052 ± 0.25 s⁻¹. Besides, the kon in assay [3] came to 150 ± 0.01 M⁻¹ s⁻¹.
